Assay: soluble on expression in E. coli; label from the status in PepcDB or PDB records

Sequence | soluble on expression in E. coli
MIQEYQLRILPEIAASEQQLKAYLSQEKGLNQRDITALRTLKRSIDARQRTIYVNLKVRVYLNEMPKDDEYEHTIYNNVEGKPQVIVVGAGPGGLFAALRLIELGLRPVVVERGKDVRERKKDLAQISREHRVDPESNYSFGEGGAGAYSDGKLYTRSKKRGNVDKILNVFCQHGASTAILVDAHPHIGTDKLPRVIENMRNTIIECGGEVHFKTRMDALIIEQGEVKGIETNTGETFLGPVILATGHSARDVYRWLAANNVTIEAKGIAVGVRLEHPAGLIDQIQYHNRSGRGKYLPAAEYSFVTQVDGRGVYSFCMCPGGFIVPAASGPEQVVVNGMSPSNRGSRWSNSGMVVEIQPEDIINDKRLTVNNEAEETFPELAVLHFQEELERQCWLQGGRRQTAPAQRMVDFTRKKLSYDLPESSYSPGLISSPLHFWMPEFIAGRLSQGFQQFGRSSHGFLTNEAVMIGVETRTSSPVRIVRDKDTLQHITLRGLFPCGEGAGYAGGIVSAGIDGERCAEAVAQFMNPLEHHHHHH | soluble
MSMPRYYEYRHVVGFEETNLVGNVYYVNYLRWQGRCREMFLYEHAPEILDELRADLKLFTLKAECEFFAELAPFDRLAVRMRLVELTQTQMELGFDYLRLGGDDLLVARGRQRIACMRGPNGRTEPVRVPAGLVRAFAPFRSATVGQ | soluble
MSGSIARCETWPFPLHFSLLLLLLDFPACGNKGGLVIFIAHKFSMLRLSMHRASLPLWVGARLLSSTAVLRLEQSAEERTREEELRQRVQQKYRGMQIPEMTHHEYGHFSTTGISASAAHQAARSAGVEGYPGFGGGAFQNRGRVDWLLLLTGCTLVYLSFKILFRQFTRGVNGLELPLWTASIELQAKHILFAVQFQQSEQDQIKKDFEAVRQTNPFVDFFEWVRSRRPEFCCGRKYGADYVMHTLVSCLRSGDGTQLATLARTLQQSMTRKNGDSLQRVDDFVEQLQSAGYLFQGIRGVGSSGVHTPEHSPQPIYTPLREVSQCGVQESDLINALDVKNGEAHSSTPFREAK | soluble
MGSDKIHHHHHHMRGPLRGKVSFPWGLRPLPMLVYHEFGRSMTRPVIGIIGNHHLINDQYATHAGGIMNSEAVAEVSGGLPLIVPSNPAFVDLDDLMATCAGFVFTGGRPNVHPEEYGEDYTDAHGTMDRDRDALTLPLIRACVERGQPILGLCRGFQEVNVAMGGSLYPEIRDLPGRMNHRMPPDGTIEEKFELRHTVTFTEGGPFHRLMGAQQVRTNTLHGQGIKQAGARVIIDGHAEDGTPEAIYIADAPGFTLSVQWHPEYRAAEDPVSRPLFAAFGEAARAWSIGKRPVKAGEVA | not soluble
MSFSDHFSAVAASYAKARPRYPQRWFRYLARIVPDRQRVWDCATGNGQAAIALAEYFSEVIGSDASAAQVRQARSHPRVQYLVFPAEATPLAPASLDLITVAQAAHWFDLPQFYIEAQRLLRPGGVIALWGYGLGSLNPAIDHVFNHFYRDWLDPYWPPERQWVEQAYEGLSFPFEPLPTPTFSMQCDWTLFDLLAYLRTWSGVQQFQRQRGFDPVWAIAPELQRVWGDPQRYRRITWPLFAKVGRWQPDRVRLEHHHHHH | not soluble
MSIEHHFLCPKKLLKLCNKKIDKDVIRNLQLLTEKFLSDIIHRSALLCKHKGKSTVDNTDIRFVIEKDFDYSFGTREIQGTTSLPTAEHLERMAEISRQNK | not soluble
MRKFIISFCCYVFFIFTLAAQDKAPHYTVIVSLDAFRWDYPAMYDTPNLNQMAREGVKATMLPSYPASTFPNHYTLATGLVPDHNGIINNTFWDVKRRRQYSMGDPATRNNPDYYLGEPIWITAQKQGVKTGNVYWVGSDIAIKGGYPTYYREYAEKPRLTFEQRVDSTIALLEKPEAERPRLVMLYFEEPDGVTHHHGPRSVEAAAIIHRMDSLVGMLRQGIASLPFGKDVNLIVTADHGMTEISDDRVVDMNKYLRPEWCEAVDGRTPTSIFTKPEYRDSVYNALKDVPHIHVWKKEEIPAELNYGSSDRIGDIVVAPELGWQFTDVPRALKGAHGYFPQSPDMQVMFRACGPDFKAGYESKGFVNVDIYPLLAHLLKITPEKTDGQFERIKDILKDVSFLEHHHHHH | not soluble
MEVLLTETFYTIGRSPRADIRIKSQFVSRIHAVLVRKSSDDVQAAYRIIDGDEDGQSSVNGLMINGKKVQEHIIQTGDEIVMGPQVSVRYEYRRRDQFGTMLEHHHHHH | not soluble
MIKLAPAALKADLQVRQERVRIAMEEEGYDALLVTSNVNLLYLFGSIYGGAAYLPAEGEPIFFVRRPQVIEEGNVCPIRKLEDIPALIQSRGGVLPRRIMLENDESSYSDIKRQHSIFPNAEYGNATALLRRLRMIKTPGEIELFRRTAAIHGEVYACIPSVFRPGMTDREFQVEIEHLMRNYGSEGIFRTFGSAMEIHMGNVIVGDNAESPSPYDFAMGGGGTDALPLGADGSPMKEGMCVMVDMAGNYSAYISDMTRSYAIGKVPDEARRLHDLSREIQAKVMETAEPGMSCADLYKRSVEMAEEAGAADKFMGTKQQAKFVGHGIGLQINEMPVLMARSKEILTPGMVIAFEPKFVLPGIGAVGNENSFLVTESGVEKLTVCSEELIDLLAVAKQ | not soluble
MRGSHHHHHHTDPNSPLDEENLTQENQDRGTHVDLGLASANVDFAFSLYKQLVLKAPDKNVIFSPLSISTALAFLSLGAHNTTLTEILKGLKFNLTETSEAEIHQSFQHLLRTLNQSSDELQLSMGNAMFVKEQLSLLDRFTEDAKRLYGSEAFATDFQDSAAAKKLINDYVKNGTRGKITDLIKDLDSQTMMVLVNYIFFKAKWEMPFDPQDTHQSRFYLSKKKWVMVPMMSLHHLTIPYFRDEELSCTVVELKYTGNASALFILPDQDKMEEVEAMLLPETLKRWRDSLEFREIGELYLPKFSISRDYNLNDILLQLGIEEAFTSKADLSGITGARNLAVSQVVHKAVLDVFEEGTEASGTTAVKITLLSALVETRTITRFNRPFLMIIVPTDTQNIFFMSKVTNPKQA | soluble
MFQFQFPLYNDIVEQARREAVEAGFEELRTPEDVDAAFRRPGTTLVLINSVCGCAGGIARPAAAHAVHYDKRPDHLVTVFAGQDKEATARAREYFVGEPPSSPSFALLKDGKLCAMLHRHDIEGHEPVAVVQKLQALFDEYCEEV | not soluble
ISKETEEIDEQQVFIDSLSGHAQILYEKYHVLPSITIAQAILESDWGNSELAAKANNLFGVKGNYKGHHVTMETDEVEKGKRKTIRAKFRKYSTFFESMDDHAQLFVRGTSWNKKKYKPVLEAGNYKEAATALQTSGYATDPDYADKISAIVEKYDL | not soluble
WSAEDKHKEGVNSHLWIVNRAIDIMSRNTTLVKQDRVAQLNEWRTELENGIYAANYENPYYDNSTFASHFYDPDNGKTYIPFAKQAKETGAKYFKLAGESYKNKDMKQAFFYLGLSLHYLGDVNQPMHAANFTNLSYPQGFHSKYENFVDTIKDNYKVTDGNGYWNWKGTNPEEWIHGAAVVAKQDYSGIVNDNTKDWFVKAAVSQEYADKWRAEVTPMTGKRLMDAQRVTAGYIQLWFDTYGDR | soluble
MTEISPKILETSSEPPPKKKRANFTLEFKNEVIRFAEQTNNCQAQKKYGVARACIQRWRHLKHELAFESEGKQGAKRLGGAGRPLKNVELDEKVEDWIASKNGKISGKDIKEYAKKINGNADFKASNGWLQRFMIRHGLIKARSSSPKTPSTSDGTTDKTLEESLFELINSDEWKNISEGNVSGFLEDFNAENGETSLKVEGNNSTTTESEVKQKPNESSKLPEINIFQQLEMLIKDSNGKEDSVEETETSVNRSPKSY | not soluble
MSERLSITPLGPYIGAQISGADLTRPLSDNQFEQLYHAVLRHQVVFLRDQAITPQQQRALAQRFGELHIHPVYPHAEGVDEIIVLDTHNDNPPDNDNWHTDVTFIETPPAGAILAAKELPSTGGDTLWTSGIAAYEALSVPFRQLLSGLRAEHDFRKSFPEYKYRKTEEEHQRWREAVAKNPPLLHPVVRTHPVSGKQALFVNEGFTTRIVDVSEKESEALLSFLFAHITKPEFQVRWRWQPNDIAIWDNRVTQHYANADYLPQRRIMHRATILGDKPFYRAGLEHHHHHH | soluble
MWRLIYSLLFLIPGAAMAGAQVYEPLSASTRTVLHRTISDQAVPMLVTLPGPEAKDWLDSMTKRLEKRISDIEERRAFLITVHYEATRAGLDPELVLSIIQVESNFRKYAVSSAGARGYMQVMPFWVDTIGNPEHNLFHLRVNLRYGCTILRHYLDLEQGDYFRALGRYNGSLGKAGYPNLVFNAWHRHWTYSTASQ | not soluble
SLLLCDIGNSNANFLDDNKYFTLSIDQFLEFKNEQKIFYINVNEHLKEHLKNQKKFINLEPYFLFDTIYQGLGIDRIAACYTIEDGVVVDAGSAITIDIISNSIHLGGFILPGIANYKKIYSHISPRLKSEFNTQVSLDAFPQKTMDALSYGVFKGIYLLIKDAAQNKKLYFTGGDGQFLANYFDHAIYDKLLIFRGMKKIIKENPNLLY | soluble
PSPREQLMESIRKGKELKQSRPPLKKASDRQLGPPRMCEPSPREQLMESIRKGKELKQSRPPLKKASDRQLGPPRMCEPSPREQLMESIRKGKELKQA | soluble
MVPAESNAVQAKLAKTLQRFENKIKAGDYYEAHQTLRTIANRYVRSKSYEHAIELISQGALSFLKAKQGGSGTDLIFYLLEVYDLAEVKVDDISVARLVRLIAELDPSEPNLKDVITGMNNWSIKFSEYKFGDPYLHNTIGSKLLEGDFVYEAERYFMLGTHDSMIKYVDLLWDWLCQVDDIEDSTVAEFFSRLVFNYLFISNISFAHESKDIFLERFIEKFHPKYEKIDKNGYEIVFFEDYSDLNFLQLLLITCQTKDKSYFLNLKNHYLDFSQAYKSELEFLGQEYFNIVAPKQTNFLQDMMSGFLGGSK | soluble
MSLAIKLIAIDMDGTLLLPDHTISPAVKNAIAAARARGVNVVLTTGRPYAGVHNYLKELHMEQPGDYCITYNGALVQKAADGSTVAQTALSYDDYRFLEKLSREVGSHFHALDRTTLYTANRDISYYTVHESFVATIPLVFCEAEKMDPNTQFLKVMMIDEPAILDQAIARIPQEVKEKYTVLKSAPYFLEILDKRVNKGTGVKSLADVLGIKPEEIMAIGDQENDIAMIEYAGVGVAVDNAIPSVKEVANFVTKSNLEDGVAFAIEKYVLNEGGSHHHHHH | soluble
NLRSIIESPSFKNAESKLTVAMGYRINNEPLLMDIAKTPHALIAGATGSGKSVCINSILMSLLYKNHPEELRLLLIDPKMVELAPYNGLPHLVAPVITDVKAATQSLKWAVEEMERRYKLFAHYHVRNITAFNKKAPYDERMPKIVIVIDELADLMMMAPQEVEQSIARIAQKARACGIHMLVATQRPSV | not soluble
GKVGDRPIEQQLALGYIKALTEHDYQTLSKYYNRDSVFYDKTADTKYIGTRSIIAFLQRSHEGVLEFDFNIEHMFNTGPLVVMIGNYHLRGPGEQFGKPGKIIDIAIPGVTTLKFDPNTQRLTEQVDLMDYQTMSDQLQSQ | soluble
MSESFAELFEESLKSLDMQPGAIITGIVVDIDGDWVTVHAGLKSEGVIPVEQFYNEQGELTIKVGDEVHVALDAVEDGFGETKLSREKAKRAESWIVLEAAFAADEVVKGVINGKVKGGFTVDVNGIRAFLPGSLVDVRPVRDTTHLEGKELEFKVIKLDQKRNNVVVSRRSVLEAENSAEREALLESLQEGQQVKGIVKNLTDYGAFVDLGGVDGLLHITDMAWKRIKHPSEIVNVGDEIDVKVLKFDRERNRVSLGLKQLGEDPWVAIKARYPEGTRVMARVTNLTDYGCFAELEEGVEGLVHVSEMDWTNKNIHPSKVVQVGDEVEVQVLDIDEERRRISLGIKQCKSNPWEDFSSQFNKGDRISGTIKSITDFGIFIGLDGGIDGLVHLSDISWNEVGEEAVRRFKKGDELETVILSVDPERERISLGIKQLEDDPFSNYASLHEKGSIVRGTVKEVDAKGAVISLGDDIEGILKASEISRDRVEDARNVLKEGEEVEAKIISIDRKSRVISLSVKSKDVDDEKDAMKELRKQEVESAGPTTIGDLIRAQMENQGLEHHHHHH | soluble
